What was measured:
[1] = target: T1, standard peptide KPGVISVMGT (last 10 amino acids of the type VI collagen α3 chain, 3168-3177); assay: competitive ELISA, peptide specificity test
T1 construct: also called STD peptide; immunogenic peptide
T1 peptide: KPGVISVMGT

[2] = target: T2, elongated peptide KPGVISVMGTA; assay: competitive ELISA, serial 2-fold dilutions of peptide
T2 peptide: KPGVISVMGTA

[3] = target: T3, truncated peptide KPGVISVMG; assay: as above
T3 peptide: KPGVISVMG

B1: monoclonal antibody 10A3 (antibody, mouse IgG1, kappa, V domains shown)
VH: EVQLQQSGPVMVKPGTSVKTSCKASGYTFTDFNMNWVKQSHGKSLEWIGAINPHNGATSYNQKFSGKATLTVDKSSSTAYMELNSLTSDDSAVYYCARWGNGKNSWGQGTTLTVSS
VL: DVVMTQTPLSLPVNLGDQASISCRSSQRIVHSNGITFLEWYLQKPGQSPKLLIYRVSNRFSGVPDRFSGSGSGTDFTLKISRVEAEDLGLYYCFQGSHVPLTFGAGTRLELKR
notes: Mouse IgG1/kappa from hybridoma; also called the chosen antibody; HRP conjugated monoclonal antibody 10A3
B1: binds [1]; no binding [2]; no binding [3].
